Results taken from patent publication US20220054617A1, “SUBUNIT VACCINE CONSTRUCTS FOR FLAVIVIRUSES” (priority 2018, published 2022).
“Also recorded” adds a separate entry of the source.

What was measured:
DENV-3 = test: Seroconversion, DENV-3-specific IgG titers; assay type: in vivo, rabbits; details: three immunization regimes of Table 8
Description: (§1) Pre-immune test-bleeds are first obtained from adult New Zealand White rabbits via venipuncture of the marginal vein of the ear on Day 1. The rabbits are immunized intramuscularly in the flank region with (a) 10 μg of antigen in 0.2 mL saline (n=4 for non-adjuvanted, antigen+saline control cohort), or (b) 10 μg of antigen plus 100 μg of adjuvant in 0.2 mL saline (n=4 for antigen+adjuvant test cohorts). An aqueous formulation for all adjuvants and antigens is ensured. Animals are immunized on Days 1, 15, and 28. A final test-bleed is performed via the marginal vein of the ear on Day 38. Sera may be banked at −80° C. for further analysis.
(§2) Rabbits (n=4/cohort) were immunized with 10 μg each antigen per dose as described in the Standardized Rabbit Model of Immunogenicity modified as shown in Table 8.

DENV-2 = test: Seroconversion, DENV-2-specific IgG titers; assay type: in vivo, rabbits; details: three immunization regimes of Table 8
Description: as §1, §2

DENV-1 = test: ADE / protection against DENV-1 by rabbit antisera (CPE/cell death, 4G2 immunostain); assay type: cell-based, dengue virus; details: in vitro challenge
DENV-4 = test: ADE / protection against DENV-4 by rabbit antisera (CPE/cell death, 4G2 immunostain); assay type: cell-based, dengue virus; details: in vitro challenge
DENV-1 antigen = target: T1, DENV-1 antigen (Dengue virus type 1, UniProt P17763, A649T/F617I/M577V/S619T/V660I); test: Serological cross reactivity matrix (ELISA), DENV-1 antigen; assay type: binding; details: Immune-2 rabbit sera
T1 construct: made in house; host or cells: E. coli BL21(DE3)-pRARE
T1 sequence (P17763 571-673, looked up, stated change not applied): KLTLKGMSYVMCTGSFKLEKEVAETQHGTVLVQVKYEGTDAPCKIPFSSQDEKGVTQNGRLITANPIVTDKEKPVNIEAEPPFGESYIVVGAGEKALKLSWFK
Description: (§3) FIG. 10B-FIG. 10C show exemplary results of a serological cross reactivity matrix. Immune-2 sera from rabbits immunized with the 6 antigens were screened by ELISA for homologous titers. Samples with highest titers were examined for immunoreactivity with all antigens. […] DENV-1 Ag is recognized by anti-DENV-3 and anti-ZIKV antisera. Conversely, anti-DENV-3 antisera recognizes ZIKV antigen. Anti-ZIKV antisera recognizes WNV antigen very strongly.

ZIKV antigen = target: T2, ZIKV antigen (Zika virus, UniProt Q32ZE1); test: Serological cross reactivity matrix (ELISA), ZIKV antigen; assay type: binding; details: Immune-2 rabbit sera
T2 construct: made in house; host or cells: E. coli BL21(DE3)-pRARE
T2 sequence (Q32ZE1 582-689, looked up, natural form): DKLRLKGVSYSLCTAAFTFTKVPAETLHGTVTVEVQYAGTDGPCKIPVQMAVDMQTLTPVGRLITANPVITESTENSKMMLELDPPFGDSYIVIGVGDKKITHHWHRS
Description: as §3

B1: SGp(L)-DENV-3: SGp(L) fusion of DENV-3 antigen, SEQ ID NO: 40 (protein)
chain: MHHHHHHSTSLAEAKVLANRELDKYGVSDYYKNLINNAKTVEGVKALIDEILAALPKGTLKGMSYAMCTNTFVLKKEVSETQHGTILIKVEYKGEDAPCKIPFSTEDGQGKAHNGRLITANPVVTKKEEPVNIEAEPPFGESNIVIGIGDNALKINWYKK
seroconversion (DENV-3-specific IgG titers) (DENV-3): equivalence between all three immunization regimes

B2: SGp(L)-DENV-2: SGp(L) fusion of DENV-2 antigen, SEQ ID NO: 39 (protein)
chain: MHHHHHHSTSLAEAKVLANRELDKYGVSDYYKNLINNAKTVEGVKALIDEILAALPKGTQLKGMSYSMCTGKFKVVKEIAETQHGTIVVRVQYEGDGSPCKIPFEIMDLEKRHVLGRLITVNPIVTEKDSPVNIEAEPPFGDSYIIIGVEPGQLKLSWFKK
seroconversion (DENV-2-specific IgG titers) (DENV-2): equivalence between all three immunization regimes

B3: DENV-3: DENV-3 E-glycoprotein subunit antigen, SEQ ID NO: 4 (protein)
chain: SNALKGMSYAMCTNTFVLKKEVSETQHGTILIKVEYKGEDAPCKIPFSTEDGQGKAHNGRLITANPVVTKKEEPVNIEAEPPFGESNIVIGIGDNALKINWYKK
modifications: Dengue virus 3
protection / neutralization against DENV-1 (heterologous) (DENV-1): neutralizes; also recorded: prominent heterologous protection | protection / neutralization against DENV-4 (heterologous) (DENV-4): neutralizes | cross-reactivity of antisera with DENV-1 antigen (DENV-1 antigen): Significant cross-reactivity; also recorded: recognized | cross-reactivity of antisera with ZIKV antigen (ZIKV antigen): reciprocal cross-reactivity was evident; also recorded: recognizes
